From US20220356265A1 (KEIO UNIVERSITY, published 2022) come the findings set out here.

For one test, the target named is T1, mouse GPC-1 (mouse, UniProt Q9QZF2 24-529).
T1 construct: whole, on cells; also called mouse glypican-1
T1 sequence (looked up): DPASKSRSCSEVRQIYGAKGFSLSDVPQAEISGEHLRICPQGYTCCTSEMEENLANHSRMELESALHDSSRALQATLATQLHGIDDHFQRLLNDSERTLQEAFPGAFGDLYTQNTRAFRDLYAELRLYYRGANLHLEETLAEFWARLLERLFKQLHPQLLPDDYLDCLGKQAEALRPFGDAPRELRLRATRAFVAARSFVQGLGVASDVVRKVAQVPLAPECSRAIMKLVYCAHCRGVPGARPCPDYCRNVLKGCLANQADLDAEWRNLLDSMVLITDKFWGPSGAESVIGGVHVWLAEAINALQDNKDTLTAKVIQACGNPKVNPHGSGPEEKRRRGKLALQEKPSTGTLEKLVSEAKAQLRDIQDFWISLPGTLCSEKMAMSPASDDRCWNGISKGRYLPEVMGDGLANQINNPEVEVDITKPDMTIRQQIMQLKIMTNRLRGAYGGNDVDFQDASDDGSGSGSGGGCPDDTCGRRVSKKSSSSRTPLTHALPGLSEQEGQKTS
In words: statement opening Example 7; no assay named.

In another test the target is T2, human glypican-1 (GPC-1) (human, UniProt P35052 24-530).
T2 construct: whole, on cells; also called GPC-1 antigen
T2 sequence (looked up): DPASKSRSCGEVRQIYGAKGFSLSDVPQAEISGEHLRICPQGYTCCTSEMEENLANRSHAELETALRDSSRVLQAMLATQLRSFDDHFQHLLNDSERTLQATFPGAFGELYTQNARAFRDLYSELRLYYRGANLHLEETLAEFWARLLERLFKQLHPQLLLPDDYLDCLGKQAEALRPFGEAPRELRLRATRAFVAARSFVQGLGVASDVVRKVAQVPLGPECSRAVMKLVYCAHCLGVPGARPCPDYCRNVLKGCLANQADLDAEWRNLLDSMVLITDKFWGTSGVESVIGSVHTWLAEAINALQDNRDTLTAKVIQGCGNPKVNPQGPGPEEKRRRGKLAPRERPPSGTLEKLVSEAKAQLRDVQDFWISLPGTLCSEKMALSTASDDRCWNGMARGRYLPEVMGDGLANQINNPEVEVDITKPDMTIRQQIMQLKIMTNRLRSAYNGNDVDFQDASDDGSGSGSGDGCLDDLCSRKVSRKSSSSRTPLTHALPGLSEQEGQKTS
In words: statement opening Example 7; no assay named.

B1: anti-GPC-1-CAR (Type A or Type B not stated) (other)
VH: AVTLDESGGGLQTPGRALSLVCKASGFTFSRYAMYWVRQAPGKGLEFVAGIGNTGRYTGYGSAVKGRATISRDSGQSTVRLQLNNLRAEDTGNYYCAKSVSPYCCDAADIDAWGHGTEVIVSS
VL: ASTQPSSVSANPGETVKITCSGGSSGYAYGWYQQKSPGSAPVTLLYSNNNRPSDIPSRFSGSKSGSTATLTITGVQAEDEAVYFCGSVDSSSYAGIFGAGTTLTVL
notes: VH and VL in truth stand in one CAR chain with a (Gly4Ser)3 linker, a human CD28-derived part and the human CD3zeta intracellular domain; also called GPC-1 CAR gene of the invention; CAR of the anti-GPC-1-CAR-T cells
As to B1, the binding result with mouse GPC-1 and in the test with human glypican-1 (GPC-1) was “binds” throughout.
